The record followed here is paper PMC548348.

This data set concerns the target hnRNP A2 (recombinant) (Homo sapiens, UniProt P22626-2 1-341). Briefly: UV-cross-linking EMSA, competition.

Turning to GCCAAGGAGCC (ssRNA) [A2RE11], the binding result was “binds”.
